± gives the standard deviation of the averaged measurements.
Assay: total protein half-life in vivo (active degradation + dilution); higher = more stable protein
[1] = E. coli NCM3722 delta-clpP delta-lon delta-hslV, growth: N-lim chemostat, doubling time 6 h
[2] = E. coli NCM3722 delta-clpP, growth: N-lim chemostat, doubling time 6 h
[3] = E. coli NCM3722 delta-hslV, growth: N-lim chemostat, doubling time 6 h
[4] = E. coli NCM3722 delta-lon, growth: N-lim chemostat, doubling time 6 h
[5] = E. coli NCM3722 delta-smpB, growth: N-lim chemostat, doubling time 6 h
[6] = wild type E. coli NCM3722, growth: C-lim chemostat, doubling time 3 h
[7] = wild type E. coli NCM3722, growth: C-lim chemostat, doubling time 6 h
[8] = wild type E. coli NCM3722, growth: C-lim chemostat, doubling time 12 h
[9] = wild type E. coli NCM3722, growth: N-lim chemostat, doubling time 6 h
[10] = wild type E. coli NCM3722, growth: N-lim chemostat, doubling time 12 h
[11] = wild type E. coli NCM3722, growth: P-lim chemostat, doubling time 6 h
[12] = wild type E. coli NCM3722, growth: P-lim chemostat, doubling time 12 h

Sequence: MDDQLKQSALDFHEFPVPGKIQVSPTKPLATQRDLALAYSPGVAAPCLEIEKDPLKAYKYTARGNLVAVISNGTAVLGLGNIGALAGKPVMEGKGVLFKKFAGIDVFDIEVDELDPDKFIEVVAALEPTFGGINLEDIKAPECFYIEQKLRERMNIPVFHDDQHGTAIISTAAILNGLRVVEKNISDVRMVVSGAGAAAIACMNLLVALGLQKHNIVVCDSKGVIYQGREPNMAETKAAYAVVDDGKRTLDDVIEGADIFLGCSGPKVLTQEMVKKMARAPMILALANPEPEILPPLAKEVRPDAIICTGRSDYPNQVNNVLCFPFIFRGALDVGATAINEEMKLAAVRAIAELAHAEQSEVVASAYGDQDLSFGPEYIIPKPFDPRLIVKIAPAVAKAAMESGVATRPIADFDVYIDKLTEFVYKTNLFMKPIFSQARKAPKRVVLPEGEEARVLHATQELVTLGLAKPILIGRPNVIEMRIQKLGLQIKAGVDFEIVNNESDPRFKEYWTEYFQIMKRRGVTQEQAQRALISNPTVIGAIMVQRGEADAMICGTVGDYHEHFSVVKNVFGYRDGVHTAGAMNALLLPSGNTFIADTYVNDEPDAEELAEITLMAAETVRRFGIEPRVALLSHSNFGSSDCPSSSKMRQALELVRERAPELMIDGEMHGDAALVEAIRNDRMPDSSLKGSANILVMPNMEAARISYNLLRVSSSEGVTVGPVLMGVAKPVHVLTPIASVRRIVNMVALAVVEAQTQPL
- total protein half-life in vivo [1]: 5.85 ± 0.24 h
- total protein half-life in vivo [2]: 6.35 ± 2.2 h
- total protein half-life in vivo [3]: 5.84 ± 0.13 h
- total protein half-life in vivo [4]: 7.1 ± 0.61 h
- total protein half-life in vivo [5]: 5.6 ± 0.15 h
- total protein half-life in vivo [6]: 3.13 ± 0.15 h
- total protein half-life in vivo [7]: 5.948 ± 0.055 h
- total protein half-life in vivo [8]: 10.7 ± 0.31 h
- total protein half-life in vivo [9]: 5.97 ± 0.3 h
- total protein half-life in vivo [10]: 10.983 ± 0.005 h
- total protein half-life in vivo [11]: 6.35 ± 0.11 h
- total protein half-life in vivo [12]: 12.2 ± 1.3 h

Sequence: MTIKVGINGFGRIGRIVFRAAQKRSDIEIVAINDLLDADYMAYMLKYDSTHGRFDGTVEVKDGHLIVNGKKIRVTAERDPANLKWDEVGVDVVAEATGLFLTDETARKHITAGAKKVVMTGPSKDNTPMFVKGANFDKYAGQDIVSNASCTTNCLAPLAKVINDNFGIIEGLMTTVHATTATQKTVDGPSHKDWRGGRGASQNIIPSSTGAAKAVGKVLPELNGKLTGMAFRVPTPNVSVVDLTVRLEKAATYEQIKAAVKAAAEGEMKGVLGYTEDDVVSTDFNGEVCTSVFDAKAGIALNDNFVKLVSWYDNETGYSNKVLDLIAHISK [P0A9B2]
- total protein half-life in vivo [1]: 6.03 ± 0.4 h
- total protein half-life in vivo [2]: 5.43 ± 0.34 h
- total protein half-life in vivo [3]: 5.447 ± 0.054 h
- total protein half-life in vivo [4]: 5.382 ± 0.019 h
- total protein half-life in vivo [5]: 5.22 ± 0.19 h
- total protein half-life in vivo [6]: 3.35 ± 0.1 h
- total protein half-life in vivo [7]: 6.201 ± 0.014 h
- total protein half-life in vivo [8]: 12.1 ± 0.39 h
- total protein half-life in vivo [9]: 5.69 ± 0.16 h
- total protein half-life in vivo [10]: 9.73 ± 0.3 h
- total protein half-life in vivo [11]: 6.302 ± 0.044 h
- total protein half-life in vivo [12]: 12.6 ± 0.74 h

Sequence: MSSSRPVFRSRWLPYLLVAPQLIITVIFFIWPAGEALWYSLQSVDPFGFSSQFVGLDNFVTLFHDSYYLDSFWTTIKFSTFVTVSGLLVSLFFAALVEYIVRGSRFYQTLMLLPYAVAPAVAAVLWIFLFNPGRGLITHFLAEFGYDWNHAQNSGQAMFLVVFASVWKQISYNFLFFYAALQSIPRSLIEAAAIDGAGPIRRFFKIALPLIAPVSFFLLVVNLVYAFFDTFPVIDAATSGGPVQATTTLIYKIYREGFTGLDLASSAAQSVVLMFLVIVLTVVQFRYVESKVRYQ
- total protein half-life in vivo [11]: 5.34 h
- total protein half-life in vivo [12]: 11.9 ± 0.84 h

Sequence: MAYSIGIDSGSTATKGILLADGVITRRFLVPTPFRPATAITEAWETLREGLETTPFLTLTGYGRQLVDFADKQVTEISCHGLGARFLAPATRAVIDIGGQDSKVIQLDDDGNLCDFLMNDKCAAGTGRFLEVISRTLGTSVEQLDSITENVTPHAITSMCTVFAESEAISLRSAGVAPEAILAGVINAMARRSANFIARLSCEAPILFTGGVSHCQKFARMLESHLRMPVNTHPDAQFAGAIGAAVIGQRVRTRR
- total protein half-life in vivo [1]: 4.12 h
- total protein half-life in vivo [2]: 4.27 h
- total protein half-life in vivo [6]: 2.01 ± 0.18 h
- total protein half-life in vivo [7]: 3.66 ± 0.33 h
- total protein half-life in vivo [8]: 6.35 ± 0.44 h

Sequence: MNNLPVVRSPWRIVILLLGFTFLYAPMLMLVIYSFNSSKLVTVWAGWSTRWYGELLRDDAMMSAVGLSLTIAACAATAAAILGTIAAVVLVRFGRFRGSNGFAFMITAPLVMPDVITGLSLLLLFVALAHAIGWPADRGMLTIWLAHVTFCTAYVAVVISSRLRELDRSIEEAAMDLGATPLKVFFVITLPMIMPAIISGWLLAFTLSLDDLVIASFVSGPGATTLPMLVFSSVRMGVNPEINALATLILGAVGIVGFIAWYLMARAEKQRIRDIQRARRG [P0AFL1]
- total protein half-life in vivo [1]: 5.96 h
- total protein half-life in vivo [10]: > 16 h
- total protein half-life in vivo [12]: 10.3 h

Sequence: MFNRPNRNDVDDGVQDIQNDVNQLADSLESVLKSWGSDAKGEAEAARSKAQALLKETRARMHGRTRVQQAARDAVGCADSFVRERPWCSVGTAAAVGIFIGALLSMRKS [P0ADQ7]
- total protein half-life in vivo [1]: 5.92 ± 0.068 h
- total protein half-life in vivo [3]: 7.51 ± 0.67 h
- total protein half-life in vivo [5]: 4.83 ± 0.087 h
- total protein half-life in vivo [6]: 2.37 ± 0.46 h
- total protein half-life in vivo [7]: 5.79 ± 0.34 h
- total protein half-life in vivo [8]: 9.97 ± 1.7 h
- total protein half-life in vivo [9]: 5.55 ± 0.094 h
- total protein half-life in vivo [10]: 11.3 ± 1.4 h
- total protein half-life in vivo [11]: 5.17 ± 0.21 h
- total protein half-life in vivo [12]: 10.8 ± 0.18 h

Sequence: MTQANLSETLFKPRFKHPETSTLVRRFNHGAQPPVQSALDGKTIPHWYRMINRLMWIWRGIDPREILDVQARIVMSDAERTDDDLYDTVIGYRGGNWIYEWATQAMVWQQKACAEDDPQLSGRHWLHAATLYNIAAYPHLKGDDLAEQAQALSNRAYEEAAQRLPGTMRQMEFTVPGGAPITGFLHMPKGDGPFPTVLMCGGLDAMQTDYYSLYERYFAPRGIAMLTIDMPSVGFSSKWKLTQDSSLLHQHVLKALPNVPWVDHTRVAAFGFRFGANVAVRLAYLESPRLKAVACLGPVVHTLLSDFKCQQQVPEMYLDVLASRLGMHDASDEALRVELNRYSLKVQGLLGRRCPTPMLSGYWKNDPFSPEEDSRLITSSSADGKLLEIPFNPVYRNFDKGLQEITDWIEKRLC
- total protein half-life in vivo [1]: 5.5 ± 0.92 h
- total protein half-life in vivo [2]: 5.97 ± 1.6 h
- total protein half-life in vivo [3]: 3.64 ± 0.2 h
- total protein half-life in vivo [4]: 3.85 ± 0.3 h
- total protein half-life in vivo [5]: 3.78 ± 0.053 h
- total protein half-life in vivo [6]: 2.32 ± 0.07 h
- total protein half-life in vivo [7]: 3.76 ± 0.11 h
- total protein half-life in vivo [8]: 4.98 ± 0.59 h
- total protein half-life in vivo [9]: 3.52 ± 0.098 h
- total protein half-life in vivo [10]: 5.5 ± 0.077 h
- total protein half-life in vivo [11]: 4.41 ± 0.33 h
- total protein half-life in vivo [12]: 7.49 ± 0.46 h

From the supplement of paper PMC11246515
